From the nanobody polyreactivity screen of Harvey et al. (2022)

Experiment: yeast display, Sf9 membrane polyspecificity reagent, FACS + sequencing; frameworks hold sequencing errors
How it was run: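 Using colony PCR, genes from sorted yeast display clones were amplified, then sequenced on MiSeq at 2 × 250 and filtered by CDR length. The clones had been stained with 10% biotinylated, detergent-solubilized Sf9 membrane reagent for 1 hour at 4 °C and sorted by FACS into low and high (top ~1%) gates on anti-HA and streptavidin fluorescence. Polyreactivity labels come from the gate of origin.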

With “QVQLVESVGGLVQAGGSLRLSCAPSGRTFYIYAMGRYRQAPGKERELVAAISISGSTYYADSVKGRFTISRDNAKNTVYLQMNSLKPEDTAVYYCAADYLDSTYGYVYGWDDYLGQGTQVTVSS” as the sequence, how does the “polyreactivity (PSR sort gate)” value read?
Its value is “low polyreactivity”.

For “QVQLVESVGGLVQAGGSLRLSCAPSGSTFYGYAMGWYRQAPGKESELVAAITWGGASTYYADSVKGRFTISRDNAKNTVYLQMNSLKPEDTAVYYCATVGWGYQPYPFGMDYWGQGTQVTVSS”, which “polyreactivity (PSR sort gate)” value is on record?
The value was “low polyreactivity”.

For “QVQLVESVGGLVQAGGSLRLSCASSGLIFPIYTMGWYRQAPGKERELVAASSSRGGSTYYADSVKGRFTISRDNAKNSVYLQMNCLKPEDTAVYDFGSYDYSGQGTQVTVSS”, which “polyreactivity (PSR sort gate)” value is on record?
Its value is “high polyreactivity”.

With “QVQLVESVGGLVQAGGSLRLSCPASGINFWNYAMGRYRQAPGKERELVAVISRGGSTYYADSVKGRFTISRDNAKNTVYLQMNSLKPEDNAVYYCAADSVVWEMEYWGQGTLVTVSS” as the sequence, how does the “polyreactivity (PSR sort gate)” value read?
Its value is “high polyreactivity”.

Which “polyreactivity (PSR sort gate)” value does the source give for “QVQLVESVGGLVQAGGSLRLSCSDSGSTFKSYAMGWYRQSPGKERELVAAITHRGSTYYADSVKGRFTISRDNAKNTVYVQMNSLKPEDTAVYYCNVRRIGNGRRVDYCGQGTQVTVSS” here?
Its value is “high polyreactivity”.

For “QVQLVESVGGLVQAGGSLRLSGADSGITFGVYAMGWYRQAPGKVRELVAAICVSGGSTYYADSVKGRFTISRDNAKNTVYLHMNSLKPEVTAVYYCAADRYGHFGYWGQGTQVTLSS”, which “polyreactivity (PSR sort gate)” value is on record?
The value was “high polyreactivity”.

For “QVQLVESVGGLVQAGGSLRLSSAASGRTFSNAKGWYRQAPGKERELVADISSGGSTNYADSVKGRFTISRDNAKNTVYLQMNSLKPEDPAVYYCAAVSGSLYGYSDDYWGQGTQVTVSS”, which “polyreactivity (PSR sort gate)” value is on record?
The value was “low polyreactivity”.

For “QVQLVESVGGLVQAGGSLRLSSAASGSIFAYNAMGSYRQAPGKERELVAAITSDDSTNNADSVKGRFTISRDNAKNTVYLQMNSLKPEDTAVYYCAAYYYYTYIIGYDYWGQGTQVTVSS”, which “polyreactivity (PSR sort gate)” value is on record?
Its value is “low polyreactivity”.

Which “polyreactivity (PSR sort gate)” value does the source give for “QVQLVESVGGLVQAGGSLRLSSAASGSTFRGYALGWYRQSPGKERELVASISWSGGSTYYADSVKGRFTISRDNAKNTVYLQMNSLKQEDTAVYYCAARKRWRNIRMDYWGQGTQVTVSS” here?
The value was “high polyreactivity”.

For “QVQLVESVGGLVQAGRSHRLSGAASCFTFTGYALGWYRQAPGKEREFVAAISRGGSTKYADSVMGRFTISRDNAKNTVYLQMNSLKPEDTAVYYCDASPVYGISRYTLGIYNYGGQGTQVTVSS”, which “polyreactivity (PSR sort gate)” value is on record?
The value was “high polyreactivity”.

For “QVQLVESVGGLVQAGVSLPLSCAASGFTFSYNAMGWYIQAPGKERELVATIRSSGGSTNYADSVKGRFTISRDNAKNTVYVQMNSLKPEDTAVYYCAADFSYYSTYDYWGQGTQVTVSS”, which “polyreactivity (PSR sort gate)” value is on record?
The value was “low polyreactivity”.

For “QVQLVESVGGLVQPGGSLRLSCAASGFTFRNNAMGWYRQSPVKERELVAAITGSGGRTYYTDSVKGRFTISSDNAKNTVYLQMHSLKPEDTAVYYCNTRYRGVHYTEMDYWGQGTQVSVSS”, which “polyreactivity (PSR sort gate)” value is on record?
Its value is “high polyreactivity”.

Which “polyreactivity (PSR sort gate)” value does the source give for “QVQLVESVGGVVQAGGSLRLCCAANRSTFAAKAMGWYRQAPGKERELGAAITSGGGTNYADSVKGRFTISRDNAKNTVYLQMNSLKPEDTAVYYCAARTWPWVLGATQDDYWGQGTQVTLSS” here?
The value was “low polyreactivity”.

For “QVQLVESVLGLVQAGGSLRLSCAASGSTILSNAIGWYRQAPGKERELVAAITSGGSTYYADSVKGGFTISRDNAKNTVYFQMNSLKPDDTAVYYCAVRYDRRRYDYWGQGTQVTVSS”, which “polyreactivity (PSR sort gate)” value is on record?
The value was “low polyreactivity”.

With “QVQLVESVRGLVHAGGSLRLSCAASGSTFYPYRMGGYRQAPGKEREFVAAITWSGGSTYYADSVKGRFTISRDNAKNTVYLQMNSLKPEDTAVYYCNKDARWYAYNSEYDHWGQGTQVSVSS” as the sequence, how does the “polyreactivity (PSR sort gate)” value read?
The value was “low polyreactivity”.

Which “polyreactivity (PSR sort gate)” value does the source give for “QVQLVESVVGLVQAGGSLRLICAASGIIISRYAMECYRQAPGKERELVAAITRSGGDTYYADSVKGRFTISRDNAKNTVYLQMNSLKPEDTAVYYCAASSSWYEDHDYWGQGTQVTVSS” here?
The value was “low polyreactivity”.

Which “polyreactivity (PSR sort gate)” value does the source give for “QVQLVESVVGLVQAGGSLRLSCAASGFIFVVYAMGWYRQAPGKERELVAAITNGGITYYADSVKGRFTISRDNAKNTVYLQMNSLKPEDTAVYYCNAQYTDYDGYVGYYYWGQGTQVTVSS” here?
The value was “low polyreactivity”.

With “QVQLVESVVGLVQAGGSLRLSCAASGRIFYRYAMGWYRQAPGKERELVASITRSGITHYADSVKGRFTISRDNAKNTVYLQMNSLKPEDTAVYYCYARRGSPAPYDYWGQGTQVTVSS” as the sequence, how does the “polyreactivity (PSR sort gate)” value read?
The value was “high polyreactivity”.

For “QVQLVESVVGLVQAGGSLRLSSAASGSIFPYYVMGWYRQAPGKERELVAAISSRGTSTYYADSVKGRFTLSRDNAKNSVYLQMNSLKPEDTAVYYCAAAYVKFYGYSAEYDYCGQGTQVTVSS”, which “polyreactivity (PSR sort gate)” value is on record?
The value was “low polyreactivity”.

With “QVQLVESWGGIVQAGGSLRLSCAASGFIFSRYGMGWYRQAPGKERELVAAISRSAGSTYYADSVKGRFTISRDNAKNTVYLQMNSQKPEETAVYYCAARHGGRATVEPPIQGYGYWGQGTQVTVSS” as the sequence, how does the “polyreactivity (PSR sort gate)” value read?
Its value is “low polyreactivity”.

With “QVQLVESWGGLFQAGGSLRLSCAASGSTFIYNAMGWYRKAPGKERELVAAITWNYGSTYYADSVKGRFTISRDNANNTVYLQMNSLKPEDTAVYYCAADFTIPYWDANFDYWGQGTQVTVSW” as the sequence, how does the “polyreactivity (PSR sort gate)” value read?
Its value is “low polyreactivity”.

With “QVQLVESWGGLGQAVGSLRLSCAASGRTFLIYAMGWYIQAPGTERELVASITGRGGRTSYADSVKGRFTISRDNAQNTVYLQMNSLKPEDTAVYYCAARNPYTSTYYYWGQGTQVTVSS” as the sequence, how does the “polyreactivity (PSR sort gate)” value read?
Its value is “high polyreactivity”.

Which “polyreactivity (PSR sort gate)” value does the source give for “QVQLVESWGGLVHAGGSLRLSCAASGSTFYWYAMGWYIQAPGKEREFVARISSSGSSTFYADSVKGRFTISRDNAKNTVYLQMNSLKPEDTAVYYCAAETYRHYCFNYWGQGTQVTVSS” here?
Its value is “high polyreactivity”.

With “QVQLVESWGGLVQAGASLRLSCAASGRILPYYAMGWYRQAPGKERELVATISSGGRTNYADSVKGRFTISRDNAKITVYLQMNSLKPEDTEVYFCNKYGFKGGVGYDYWGQGTQVTVSS” as the sequence, how does the “polyreactivity (PSR sort gate)” value read?
Its value is “high polyreactivity”.

For “QVQLVESWGGLVQAGGSLRLICAASGSTFYYNAMGWYRQAPGKEREFVAAISSRRGSTYYADSVKGRFTISRDNAKNTVYLQMNSLKQEDTAVYYCAAKYSHRYDWGQGTQVTVSA”, which “polyreactivity (PSR sort gate)” value is on record?
The value was “high polyreactivity”.

With “QVQLVESWGGLVQAGGSLRLSCAASGFTFRAYAMGWYRQAPGKERELVAAISTGGGSTYYADSVKGRFTISRDNAKNTVYLQMKSLKPEDTAVYYCNALPQRRYYYWGQGTQVTVSS” as the sequence, how does the “polyreactivity (PSR sort gate)” value read?
Its value is “high polyreactivity”.

For “QVQLVESWGGLVQAGGSLRLSCAASGITFTVYAMGWYRQAPGKEREFVAAISSSGSTTYAVSVKGRLTFSRDNAKNTVYLQMNSLKPEDTAVYYCAAEGYYRFSTAYFRRKYEYCGQGTQVTVSS”, which “polyreactivity (PSR sort gate)” value is on record?
Its value is “low polyreactivity”.

Which “polyreactivity (PSR sort gate)” value does the source give for “QVQLVESWGGLVQAGGSLRLSCAASGITLGYYSMGWYRQAPGKERELVAGISSSGDSTYYADSVKGRFTISRDNAKNSVYLQIKSLKPEDTAVYYCIADGWYFEYWGQGTQVTVSS” here?
The value was “low polyreactivity”.

Which “polyreactivity (PSR sort gate)” value does the source give for “QVQLVESWGGLVQAGGSLRLSCAASGLIFQTYTMGWYKQAPGKERELVAAITSSGGRTYYADSVKGRFTISRDNAKNTVYLQKNSLKPEDTAVYYCAARGPPSAGMGYWGQGTQVTVSS” here?
Its value is “high polyreactivity”.

Which “polyreactivity (PSR sort gate)” value does the source give for “QVQLVESWGGLVQAGGSLRLSCAASGLILFAYTMGWYRQAPGKERELVAGIDGSGGTTYYADSVKGRFTISRDNAKNTVYLQMNSLNPEDTAVYYCAASGFRWQGVKRMDYWGQGTQVTVSS” here?
Its value is “low polyreactivity”.

Which “polyreactivity (PSR sort gate)” value does the source give for “QVQLVESWGGLVQAGGSLRLSCAASGNLFADYAMGWYRQAPGTERELVAAISRGGITSYADSVKGRFTISRDNAKNTVYLQMNSLKPEDTAVYYCATDRYDVYDSLGFGYWGQGSQVTVSS” here?
The value was “low polyreactivity”.

For “QVQLVESWGGLVQAGGSLRLSCAASGRIFHRNTMGWYRQAPGKERELVAAIRSGSRTYYADSVKGRFTISRDNAKNTVYLQMNSLKPEDTAVYDCATTFGTPRYDYWGQGTQVTVSS”, which “polyreactivity (PSR sort gate)” value is on record?
The value was “high polyreactivity”.

For “QVQLVESWGGLVQAGGSLRLSCAASGRILGDYAMGWYRQAPGKEREFVAAIDYNGGSTNYADSVKGRFTISRDNAKNTVFLQMNSLKPEDTAVYYCAAPGFPSRNGFGYWGQGNQVTVSS”, which “polyreactivity (PSR sort gate)” value is on record?
The value was “low polyreactivity”.

Which “polyreactivity (PSR sort gate)” value does the source give for “QVQLVESWGGLVQAGGSLRLSCAASGRTFSRYAMGWYRQAPRKERELVAAISSRGGSTYYADSVKGRFTISRDFANNTVYLQMNSLYPEDTAVYYCNADSKVDPYGYDYWGQGTQVTVSS” here?
The value was “high polyreactivity”.

For “QVQLVESWGGLVQAGGSLRLSCAASGRTNGYAMGWYRQAPGKERELVARITWRGGSTSYADSVKGRFTISRDNAKNTVYLQMNSLKREDTAVYYCAAGFYFPVYTYVRKRYYYWGQGTQVTVSS”, which “polyreactivity (PSR sort gate)” value is on record?
Its value is “high polyreactivity”.

With “QVQLVESWGGLVQAGGSLRLSCAASGSIFYRYAMGWYRQAPGKEREFVAAIRWRGGSTYYADSVKGRFTISRDNAKNTVYLQMNSLKPEDTAVYYCAAPTVQRYNYWGQGTQVTVSS” as the sequence, how does the “polyreactivity (PSR sort gate)” value read?
Its value is “high polyreactivity”.

For “QVQLVESWGGLVQAGGSLRLSCAASGSIFYTNVMGWYRQAPGKERELVARIDSGGSTNYADSVKGRFTISRDNAKNTVYLQMNSLKPEDTAVYYCAADWYIYDYWGQGTQVTVSS”, which “polyreactivity (PSR sort gate)” value is on record?
Its value is “low polyreactivity”.

Which “polyreactivity (PSR sort gate)” value does the source give for “QVQLVESWGGLVQAGGSLRLSCAASGSLFTSNAMVWYRQAPGKEREFVAGIDYSTGGTSYADSVKGRFTISRDNAKNNVYLQMNRLLPEDTAVYYCNADRWLVYVHTWEYDYWGQGTQVTVSS” here?
Its value is “low polyreactivity”.

Which “polyreactivity (PSR sort gate)” value does the source give for “QVQLVESWGGLVQAGGSLRLSCAASGSTFTPYVMGWSRQAPGKERELVAAISKRGGSTYYADSVKGRFTISRDNANNSVYLQMNSLKPADTAVYYCAAVQPAWGNGYWGQGTQVTVSS” here?
The value was “high polyreactivity”.

For “QVQLVESWGGLVQAGGSLRLSCAASRIIFRWYAMGWYRKAPGTERELVAAITSDGNTYYADSVKGRFTISRDNAKNTVYLQMNSLKPEDTAVYYCAARLSYYCRMNYWGQGTQVNVSS”, which “polyreactivity (PSR sort gate)” value is on record?
The value was “high polyreactivity”.

For “QVQLVESWGGLVQAGGSLSLSCAASGRIIARNAMGWYRQAPGKEREFVAAISFSDGSTYYADSVKGRFTISRDNAKNTVYLQMNSLKPEDSAVYYCNKGASPDDYDYWGQGTQVTVSS”, which “polyreactivity (PSR sort gate)” value is on record?
The value was “low polyreactivity”.
